# Data as given in the NTF2 design screens of Basanta et al. (2020).
# Assay: protease stability score; higher = more stable; yeast display proteolysis, trypsin and chymotrypsin;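 further: relative to predicted unfolded state with 0 unfolded-like and 1 meaning tenfold more protease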
row,Sequence,protease stability score
1,TEDEKIAKDTLEEITEALATGDEDQLNRLMDPNVKIFFNGQEIHGRHDSVKYWREIRIRDSHIIIRHVDIQGDKIRLDGEYQLRGEIDGQEIERTMHVRLFMHKVNGRWIVRRQVWG,1.56
2,DEEEENMRIAFKLLIEMHRTGDPEEHLELFDPHVRSIIGDKEYHGWEEYMRWIQHARVKELKLDSHRVYNGRVELDVRINVDVNGREIDREVHIIAEKVNGRWHFKSVRVL,1.41
3,EEEDREFEERWKEFEHAMRTGDEDSLEENLDPNVRFLFDGQEIVGRELTSKFIAEWLRSLGVEKVTIFMRRFHVIGDKVTVDGAFEVNGVHIRTIVYSKKVNGRWFNKSEEFR,0.733
4,SEEDHHTERIVEEFIEAERTGDEDHLLELIDPHVRVDVNGVELHGREELYKFWRDWLTKFKNARIEIRHVNNQGDKSTVLVLRRINGVDLETHVKWVFVNGKLKSITIRLN,1.49
5,HDMEERSKHVHHIILRSLRTGDEDAYERLADPDTRLHVGDKNIHGRESIRNIWREILERIPNMRIELELEDSEIVGDYIYLKINLRMNFDGREVEHEIRIVSLKINGRWVEKSVHFR,0.591
6,SEEDELLREVFELWVEIVRTGDESRLKKLLDPHVRLIYNGRRYHGWEEVVRFYREWRIKSMSIHSIETQGDKAHANSETDIEYNGKRERSDIRIHMIVINGRIHHIEIREH,2.39
7,SEHDKFTREMSEMLIEALLTGDWRIFEELADPNMRFHQGEFHFHGREEVSHRMLELVDLLGADHYDVREIRFQGDKIHTHLEYYIGDKLFRVDLHAEKVNGKWHLTIVHVDSH,2.03
8,SEDERDAHRAWEIWLKTLETGNEEDMLKLMDPNVRIIIGDKHHHGREELEKILRRYDHIDMEHVHLRHLEVQGEKVIYIGEIHMVFHFNGVTRRLHTEAILILTKVNGRWSQKSLEIK,1.32
9,DKEEEDSDEALKWFFDVLRTGDERLIREMLDPDARIEIDGVPSHGRESVEEFVHRIRNMKVDDFQVKRIDVQGDKVRLDTHFDGTINGVRRQVDLTIIARKINGRWFNESISIK,1.91
10,DHVEEVVRQMVSHILRDYITGDEKSYASLMDPNMRLHIGDKDSIGREEVLRLIREHTRHLGIKHFHLHDVRIRIQGEYVEIKIDVHLEFNGRKFRVIIHLEMHKVNGRWRLHEETIEIE,2.61
11,SEEEDTMRHLLHLLIEWELTGDWKNWQKLADPRTRIEINGRELHGRETYAEFIREVLEQFKNLVIHDFIMHDVKVFDGRVIVDGYVDTEINGVRTHIRVEFILIVVNGKLRRVSRIVR,1.57
12,DETEEMIKRHMDKLFRAVRTGDWDQFVKLADPNTRIEVGDFHYHGWERFSEFMSELRIHRFRMHDSEVVNGRVHLHTEEDGEVNGKRRESRVHRVLLKIDGRWHLHSVHIE,0.909
13,DKKQVHDVARTLVQYYVSGNSERVKQLGKEDVELHAGDRTYHGVDQMAKVVEQFKKYGVELEVKDVKVDGNRVTARVQFHKAGTTWEFKVDVQADGGKVDQVRVNVTEEAIKHIQHG,0.715
14,REEDKRAREDVEEWLRWFLTGDEEHLIKYADPNVRVDYGDKDIHGRNEATRIWREFLKHIRIHHVEVSHIKYVGEKVIVDVRLDGEINGRRVITHVEMEIIVVNGVLKSVHINSR,1.21
15,DEERELLDHLAKFILSVVRTGDWESMLRMADPNARIQIDGREYHGMDFFIRHWWELGIDHERIDKIDIQGDKLFIHRTLEYDGQEIDSELYIIVINGKLKSIDIRIR,0.764
16,DEHTSRLERLAHLFFESWITGDFDALLKYLDPNVRIEQGDKHIHGREVMFEHLERLLKHWWFHEHRLRDVKSVNGVSHLHVHQRNEINGVELRYDFHIHLYIVDGRLKSMEFRIS,1.07
17,DENTENEHNIAEVIIEAFETGDWEMLWRMADPNTLLEIIIGDKRMEIHGMHIFVKYWVEFQDRFKNVRISLKSYHVYDGRIELHMNLNFNGRRVEEEVLIYFINGRVKRIHIRHH,2.8
18,DSDHHRAYEYAEFFIEWHETGNEDVLTELLDPHVRLIVDGQHYHGRDLIVRFLVQWRIHRFHIHDVKSIGEYIRVDTHVDMEFDGKRIITQVELVIIKINGRWRYKHISIP,1.22
19,DDEKRWLEELWKDIQRADETGDEEHFLHLADPHVRFHVNGRDVHGMELVAHILLKWLNEIRIKDFRLKDMRMFENHLRVDGSIVLIVNGQEIETDMILRFEVVNGRIKDREIDIR,1.37
20,SEDERDIEHAVKVEIKSYETGDEKSWREYVDPHVRIEQGDFLFHGWEDAVKLYAKIKNLTLEVKDMKVYNGRVHSEGVFKFNGQSMETRLIIFKIDGQWIVHSIHIK,1.82
